The text below walks through data of patent publication US7803377B2, “Anti-DLL4 antibodies and methods using same” (Genentech, Inc., priority 2006, dated 2010).

In data set [1] the test system is SK-OV-3X1, LL2, EL4, H11299, SKMES-1, MX-1, SW620 and LS174T models. The data set is described as follows: Tumor models, combination of YW26.82 with anti-VEGF where tested. Format: in vivo, mouse. The note with it: YW26.82 5 mg/kg and anti-VEGF 5 mg/kg, IP, twice weekly; models where the combination was tested. How it is done:
(§1) Tumor models. Beige nude female mice of 8- to 10-week-old were used. To obtain subcutaneous tumors, mice were injected with 0.1 ml cell suspension containing 50% matrigel (BD Bioscience) into the right posterior flank. 5×10^6 human colon cancer HM7 cells, 10×10^6 human colon carcinoma Colo205 cells, 10×10^6 human lung carcinoma Calu6 cells, 10×10^6 human lung carcinoma MV-522 cells, 10×10^6 mouse leukemia WEHI-3 cells, 10×10^6 mouse lymphoma EL4 cells, 10×10^6 human ovarian cancer SK-OV-3 X1 cells, 10×06 mouse lung cancer LL2 cells, 10×10^6 leukemia/lymphoma EL4 cells, or 10×10^6 non-small lung cancer H1299 cells were injected into each mouse. For human melanoma MDA-MB-435 model, mice were injected into the mammary fat pad with 0.1 ml cell (5×10^6) suspension containing 50% matrigel. […] For the following tumor models, each test mouse received a subcutaneous tumor fragment (1 mm^3) implanted in the right flank: non-small lung cancer SKMES-1, human breast cancer MX-1, human colorectal cancer SW620 and human adenocarcinoma LS174T. The tumor growth was quantitated by caliper measurements. Tumor volume (mm^3) was determined by measuring the length (l) and width (w) and calculating the volume (V=lw2/2). 10 to 15 animals were included in each group. Statistical comparison of treatment groups was performed using two-tailed Student's t-test. […]

Another data set relates to small intestines. Put plainly: Histology and immunohistochemistry of mouse intestines. The format is in vivo. The note with it: anti-DLL4 antibody 10 mg/kg, twice weekly for 6 weeks. As for the experimental part:
FIG. 10: DLL4/Notch was dispensable in the homeostasis of mouse intestine. Immunohistochemical studies of small intestines from control (a, d, g, j), anti-DLL4 antibody (10 mg/kg, twice weekly for 6 weeks) (b, e, h, k), and DBZ treated (30 μmol/kg daily for 5 days) (c, f, i, l) mice.
Histology and immunohistochemistry of mouse intestines. Formalin-fixed and paraffin-embedded mouse small intestine tissues were sectioned at 3 μm thickness. Histochemical identification of intestinal cell types was performed with Alcian blue as recommended by the manufacturer (PolyScientific). For anti-Ki67 staining, sections were pretreated with Target Retrieval Solution (S1700, DAKO), and incubated with rabbit anti-Ki67 (1:200, clone SP6, Neomarkers). Secondary goat anti-rabbit at 7.5 µg/ml (Vector labs) was detected with the Vectastain ABC Elite Kit (Vector labs). All Ki67 stained sections were counterstained with Mayer's hematoxylin. For HES-1 staining, anti-rat HES-1 (clone NM1, MBL, International), followed by TSA-HRP, was used.
A major concern about global inhibition of Notch is that it may be deleterious, given the pleiotropic roles of Notch signaling in regulating the homeostasis of postnatal self-renewal systems. For instance, Notch signaling is required to maintain undifferentiated crypt progenitor cells in intestines (van Es, J. H. et al. Nature 435, 959-63 (2005); Fre, S. et al. Nature 435, 964-8 (2005)). Indeed, γ-secretase inhibitors, which would indiscriminately block all Notch activities, cause unwanted side effects in rodents duo to a massive increase in goblet cells within the crypt compartment (Milano, J. et al. Toxicol Sci 82, 341-58 (2004); Wong, G. T. et al. J Biol Chem 279, 12876-82 (2004)). We examined the small intestines of mice treated with anti-DLL4 Mab by immunohistochemistry analyses.

In data set [2] the test system is adult retinal vasculature. The data set is described as follows: Adult mouse retina vasculature (ASMA and isolectin staining). The format is in vivo. The note with it: 8 week-old mice, 10 mg/kg, twice weekly for two weeks. An excerpt: FIG. 8: DLL4-mediated Notch signaling regulated EC differentiation. a, The lumen-like structures (white arrows) formed by HUVECs growing in fibrin gels were lost in the presence of anti-DLL4 antibody or DBZ. Instead, the spouts were highly packed with cells (black arrows). b, Regulation of TGFβ2 by Notch. Quantitative PCR analysis of TGFβ2 expression in response to, Notch blockade in 3-D fibrin gel culture of HUVECs for (7 d) by anti-DLL4 antibody or DBZ (left), or Notch activation in 2-D culture of HUVECs (36 hr) by immobilized DLL4 (right). c, Anti-DLL4 antibody blocks arterial development. Confocal images of neonatal mouse retinas stained with alpha smooth muscle actin (ASMA) and isolectin. Neonatal mice were treated as described in FIG. 1d. d, Confocal images of adult mouse retinas stained with ASMA and isolectin. 8 week-old mice were treated with PBS or anti-DLL4 antibody (10 mg/kg, twice weekly) for two weeks.
Thus, DLL4/Notch signaling is critical during active angiogenesis, but plays a less important role in normal vessel maintenance.

The next data set has as its target Jag1 (Homo sapiens, UniProt P78504). The data set is described as follows: ELISA binding to coated purified recombinant proteins. The note with it: plates coated with recombinant protein 1 μg/ml. How it is done: (§2) 96-well Nunc Maxisorp plates were coated with purified recombinant proteins as indicated (1 μg/ml). […] Bound antibodies were detected with anti-human antibody HRP conjugate using TMB as substrate and OD 450 nm absorbance measurement. Anti-HER2 and recombinant ErbB2-ECD were used as assay control (FIG. 11b).
A general note: ELISA stands for enzyme-linked immunosorbent assay.

In the next data set the target is mouse DLL4 (Mus musculus, UniProt Q9JI71). The data set is described as above. The note with it: plates coated with recombinant protein 1 μg/ml. How it is done:
as §2

For another data set, the target named is DLL4 (Homo sapiens, UniProt Q9NR61). Described as above. Conditions: plates coated with recombinant protein 1 μg/ml. How it is done: as §2
The next data set has as its system mouse lymphoma EL4 cells. The data set is described as follows: Tumor model EL4. The format is in vivo. Conditions: 5 mg/kg, IP, twice weekly after establishment of the tumors. How it is done: as §1

Chain of mouse DLL4 (Q9JI71 27-686): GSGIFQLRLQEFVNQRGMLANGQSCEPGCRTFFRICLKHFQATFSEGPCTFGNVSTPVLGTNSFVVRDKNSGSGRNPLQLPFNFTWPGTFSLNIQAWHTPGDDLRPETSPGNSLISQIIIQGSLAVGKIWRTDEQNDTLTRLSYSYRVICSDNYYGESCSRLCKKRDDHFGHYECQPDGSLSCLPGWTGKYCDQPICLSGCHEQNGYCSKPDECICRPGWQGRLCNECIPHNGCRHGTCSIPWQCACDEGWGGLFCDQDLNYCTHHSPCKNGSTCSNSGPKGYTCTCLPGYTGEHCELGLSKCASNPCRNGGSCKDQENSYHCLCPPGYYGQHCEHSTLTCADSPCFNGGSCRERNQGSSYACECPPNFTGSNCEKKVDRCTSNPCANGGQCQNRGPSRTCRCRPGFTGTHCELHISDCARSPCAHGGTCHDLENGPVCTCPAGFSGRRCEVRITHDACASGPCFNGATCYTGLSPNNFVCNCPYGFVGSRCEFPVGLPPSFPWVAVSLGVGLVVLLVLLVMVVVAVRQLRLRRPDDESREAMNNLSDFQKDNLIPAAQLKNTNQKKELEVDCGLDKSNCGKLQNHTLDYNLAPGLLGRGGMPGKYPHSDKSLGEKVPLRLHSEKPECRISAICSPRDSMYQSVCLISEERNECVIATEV

For the substance “YW26.82: affinity matured anti-DLL4 monoclonal antibody; HVR-H1/H2/H3 SEQ ID NO:1, 8, 9; HVR-L1/L2/L3 SEQ ID NO:10, 11, 18”, the “efficacy in combination with anti-VEGF” value in data set [1] is on record as “enhanced efficacy”. For the same substance, the “epithelial crypt cell differentiation or proliferation in small intestine” value is listed as “entirely absent” in the data set on small intestines and “no differences in epithelial crypt cell differentiation or proliferation profiles” in the data set with small intestines (listed as anti-DLL4 Mab). For the same substance, the “expression of Notch target gene HES-1 in transit amplifying (TA) population” value with small intestines is “did not alter the expression of the Notch target gene HES-1”. Further, the “impact on adult retinal vasculature” value in data set [2] is given as “no visible impact on adult retinal vasculature”. The “binding by ELISA” value with Jag1 is reported as “did not delectably bind”; in the data set with mouse DLL4, “bound”; with DLL4 it was “bound”. The “tumor growth, single agent” value in the data set with mouse lymphoma EL4 cells is listed as “inhibited tumor growth alone”.
